Measurements: article PMC9280192

Target: IRSp53 (insulin receptor substrate protein 53), full-length
Assay: SEC-MALS

- stoichiometry N: 2
Substance: IRSp53 (insulin receptor substrate protein 53), full-length (natural protein)
